The sequences below were run on Escherichia coli TOP10 (assay: shrunken log2 fold change of peptide-encoding DNA abundance (4.5 h post-induction vs induction); higher = less antimicrobial activity (less host growth inhibition)). Details: time post-induction: 4.5 h; library: site-saturation at positions 5, 18, 19, 20.
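Further: peptides expressed intracellularly from a pBAD plasmid library in pooled LB shake-flask culture, induced with 0.3% L-arabinose, DNA abundance read by NGS, three biological replicates, DESeq2 with apeglm shrinkage.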

Sequence	shrunken log2 fold change
RRIRMRPPRLPRPRPRPLDYPRP	-0.0259
RRIRFRPPRLPRPRPRPYSKPRP	-0.996
RRIRHRPPRLPRPRPRPFDVPRP	-0.168
RRIRKRPPRLPRPRPRPKWPPRP	-0.031
RRIRQRPPRLPRPRPRPICLPRP	0.144
RRIRKRPPRLPRPRPRPSCMPRP	-0.0405
RRIRPRPPRLPRPRPRPLAQPRP	0.192
RRIRKRPPRLPRPRPRPRPVPRP	0.732
RRIRQRPPRLPRPRPRPAHQPRP	0.0203
RRIRKRPPRLPRPRPRPKWYPRP	-0.235
RRIRTRPPRLPRPRPRPWILPRP	-0.23
RRIRIRPPRLPRPRPRPISFPRP	0.00109
RRIRYRPPRLPRPRPRPCPVPRP	-0.143
RRIRYRPPRLPRPRPRPRWGPRP	0.12
RRIRVRPPRLPRPRPRPEWFPRP	-0.154
RRIRSRPPRLPRPRPRPCWTPRP	-0.306
RRIRKRPPRLPRPRPRPCNYPRP	-0.0312
RRIRGRPPRLPRPRPRPPNGPRP	0.534
RRIRGRPPRLPRPRPRPHAWPRP	0.595
RRIRMRPPRLPRPRPRPVTCPRP	0.0862

Sequence	shrunken log2 fold change
RRIRGRPPRLPRPRPRPIQGPRP	-0.0132
RRIRIRPPRLPRPRPRPSTAPRP	-0.263
RRIRLRPPRLPRPRPRPAGHPRP	-0.0387
RRIRQRPPRLPRPRPRPALTPRP	0.128
RRIRPRPPRLPRPRPRPLPWPRP	0.592
RRIRKRPPRLPRPRPRPNCDPRP	0.142
RRIRDRPPRLPRPRPRPCVVPRP	-0.00921
RRIRFRPPRLPRPRPRPAPFPRP	-0.236
RRIRKRPPRLPRPRPRPPLTPRP	0.542
RRIRTRPPRLPRPRPRPYQGPRP	-0.0132
RRIRGRPPRLPRPRPRPVVDPRP	0.873
RRIRPRPPRLPRPRPRPDGVPRP	0.14
RRIRKRPPRLPRPRPRPGCHPRP	0.0456
RRIRWRPPRLPRPRPRPTSCPRP	0.581
RRIRVRPPRLPRPRPRPMLRPRP	-0.102
RRIRKRPPRLPRPRPRPDKKPRP	-0.117
RRIRSRPPRLPRPRPRPRGVPRP	0.749
RRIRERPPRLPRPRPRPGVWPRP	0.44
RRIRIRPPRLPRPRPRPWYMPRP	-0.775
RRIRGRPPRLPRPRPRPAYTPRP	-0.166

Sequence	shrunken log2 fold change
RRIRYRPPRLPRPRPRPIKQPRP	-0.0386
RRIRFRPPRLPRPRPRPNYLPRP	-0.381
RRIRRRPPRLPRPRPRPLDGPRP	0.0894
RRIRLRPPRLPRPRPRPYCHPRP	-0.542
RRIRFRPPRLPRPRPRPRKGPRP	0.447
RRIRPRPPRLPRPRPRPGHAPRP	0.461
RRIRERPPRLPRPRPRPNMWPRP	-0.647
RRIRMRPPRLPRPRPRPMMMPRP	-0.0717
RRIRVRPPRLPRPRPRPQPHPRP	0.0498
RRIRIRPPRLPRPRPRPDMLPRP	-0.618
RRIRPRPPRLPRPRPRPGKPPRP	0.306
RRIRTRPPRLPRPRPRPRQTPRP	0.0617
RRIRPRPPRLPRPRPRPAPQPRP	0.461
RRIRRRPPRLPRPRPRPTCHPRP	0.0647
RRIRMRPPRLPRPRPRPATFPRP	0.376
RRIRQRPPRLPRPRPRPIAQPRP	0.0718
RRIRRRPPRLPRPRPRPRVQPRP	0.445
RRIRIRPPRLPRPRPRPVMAPRP	-0.526
RRIRSRPPRLPRPRPRPGFMPRP	-0.101
RRIRPRPPRLPRPRPRPHVTPRP	-0.0437

Source: the supplement of paper PMC9112550, “Optimization of the antimicrobial peptide Bac7 by deep mutational scanning” (BMC Biology, 2022)
